Assay: yeast display, Sf9 membrane polyspecificity reagent, FACS + sequencing; frameworks hold sequencing errors
How it was run: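 After 36–48 hours of galactose induction, yeast (Saccharomyces cerevisiae BJ5465) displaying a synthetic nanobody library were stained at 4 °C for 1 hour with 10% biotinylated, detergent-solubilized Sf9 membrane reagent. Streptavidin microbeads enriched the stained cells before FACS sorting into low and high (top ~1%) gates on anti-HA and streptavidin fluorescence. Each clone's polyreactivity label reflects its gate of origin.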

## QGQLVESGGGLVQAGGSLRLSCAASGRTFKYNVMGWYRQAPGKERELVAAISSGGGTNYADSVKGRFTISRDNAKNTVDLQMNSLKPEDTAVYYCAAKYAWRLLEMYYWGQGTQVTVSS
  polyreactivity (PSR sort gate): low polyreactivity

## QVQLVESGGGLVQAGGSLRLSCAAYYAMGWYRQAPVKERELVAAISSTGRTNYADSVKGRFTISRDNAKNTVYLQMNSLKPEDTAVYYCAAEWHYIYAYDYWGQGTQVTVSS
  polyreactivity (PSR sort gate): low polyreactivity

## QVQLVESGGGLVQAGGSLRLSCAASGRIFSYNAMGWYRQAPGKERELVAAITSSGSTYADSVKVRFTISRDNAKNTVYLQMNSLKPEDTAVYYCASYYNWSGHYYWGQGTQVTVSS
  polyreactivity (PSR sort gate): low polyreactivity

## QVQLVESGGGLVQAGGSLRLSCAASGSTFRYNAMGWYRQAPGKERELVAAINRGGGTDYADSVKGRFTISRDNAKNTVYLQMNSLKPEDTAVYYCAAAYLRYVSTQYHYDDWGQGTQVTVSS
  polyreactivity (PSR sort gate): low polyreactivity

## QVQLVESGGGLVQAGGSLRLSCAASGRIFDVYAMGWYRQAPGKERELVATITGSGGGTYYADSVKGRFTISRDNAKNTVYLQMNSLKPEDSEVYYCASYYYPNYAYYVSNVVYDYWVQGTQVTVSS
  polyreactivity (PSR sort gate): low polyreactivity

## QVQLVESGGGLVQAGGSLRLSCAASGSILYVYALAWYRQAPGKERALVAAIYSGASTYYADSVKGRFTISPDNAKNTVYFQMNSLIPEETAVYYCAAYVFFQTYFSYYVEGDYWGQGTQVTVSS
  polyreactivity (PSR sort gate): low polyreactivity

## QVQLVESGGVLVQAGGSLRLSCAASGRTFRYYAMGWYRQAPGKERELVAAITVTVTSTFYADSVKGRFTISRDNAKNTVYLQMNSLKPEDTAVYYCAKVDRQSPGQYYYWGQGTQVTVSS
  polyreactivity (PSR sort gate): low polyreactivity

## QVQLVESGGGLVQAGGSLRLSCAASGSIFYYYAMGWYRQAPGKERELVAAISYGGTRTYYADSVKGRFTISRDNAKNTVYLQMNSLKPEDTAVYYCAASQYSFKGRDYDYWGQGTQVTVSS
  polyreactivity (PSR sort gate): low polyreactivity

## QVQLVESGGGLVQAGGSLRLSCAASGSIFNYNAMGWYRQEPGKERVLVATINKRAGRTYYADSVKGRFTISRDNAKNTFYLQMNSLNPEETAVYYCAAYGRNYSIYDYWGQGTQVTVSS
  polyreactivity (PSR sort gate): high polyreactivity

## QVQLVESGGGLVQAGGSLRLSCAASGIIFKLYAMGWYRQAPGKERELVAAITYRGGTTYYADSVKGRFTISRDNAKNTVYLQMNSLKPEDTAVYYCAADNTFRDDYFLYYLFNYNYWGQGTQVTVSS
  polyreactivity (PSR sort gate): low polyreactivity

## QVQLVESGGGLVQAGGSLRLSCAASGSTFPGYAMGWYRQAPGKERELVATISSGGSTNYADSVKGRFTISRDNAKNTVYLQMNSLKPEDTAVYYCAKLRSAKFRYGYWGQGTQVTVSS
  polyreactivity (PSR sort gate): low polyreactivity

## QVQLVESGGGLVQAGGSLRLSSAASGSIFSSYAMGWYRQAPGKERELVAAITKRADRTNYADSVKGRFTISRDNAKNTVYLQMNSLKPEDTAVYYCNAEGQNDHPSNGYISYKYDYWGQGTQVTVSS
  polyreactivity (PSR sort gate): low polyreactivity

## QVQLVESGGGLVQAGGSLRLSCAASGSTFNRYAMGWYRQAPGKERELVASISCSGGGSTYYADSVKGRFTISRDNAKNTVYLQMNSLKPEDTAVYYCAVSRDSYGGKGSVLYDYWGQGTQVTVSS
  polyreactivity (PSR sort gate): low polyreactivity

## QVQLVESGGGLVQAGGSLRLSCAASGSTILSYGMGWYRQAPGKERELVAGISRGGITYYADSVKGRFTISRDNAKNNVYLQMNSLKPEDTAVYYCNVGLYSYYYRSRPRDYEYWGQGTQVTVSS
  polyreactivity (PSR sort gate): high polyreactivity

## QVQLVESGGGLVQAGGSLRLSCAASGSIFLIYAMGWYRQAPGKERELVAAINYSGVRTYYADSEKGRFTISRDYAKNTLYLPMNSLKPEETAVYYCAPDATSYSYRYNYWGQGTQVTVSS
  polyreactivity (PSR sort gate): high polyreactivity

## QVQLVESGGGLVQAGGSLRLSCAASGSNFLKNAMGWYRQAPGKERELVAAITSGGSTYYADSVKGRFTISRDNAKNTVYLQMNSLKPEDTAVYYCADETSPSWYTWVTYDYWGQGTQVTVSS
  polyreactivity (PSR sort gate): high polyreactivity

## QVQLVESGGGLVQAGGSLRLSCAASGSTLYFNAMGWYRQAPGKERELVATITSGGSTYYADSVKGRFTISRDNAKNTVYFQMNSLKPEDTAVYYCNADFGSYATNGMTPLYDYWGQGTQVTVSS
  polyreactivity (PSR sort gate): high polyreactivity

## QVQLVESGGGLVQAGGSLRLSCAASGSTFRDYAMGWYRQAPGKERELVAAITYSDGGTYYADSVKGRFTISRDNAKNTVYLQMNSLKPEDTAVYYCAADYPIYSFYYSAYFIFGYWGQGSQVTVSS
  polyreactivity (PSR sort gate): low polyreactivity

## QVQLVESGGGIVQAGGSLRLSCAASGSIFSYYAMGWYRQAPGKERELVAAITSGGATTYYADSVKGRFTISRDNAKNTVYLQMNSLKPEDTAVYYCAAGYYVYYRWWELDYWGQGTQVTVSS
  polyreactivity (PSR sort gate): low polyreactivity

## QVQLVESGGGLVQARGSLRLSCAASGSTSTYYAMGWYRQAPGKERELVAAITSSVGSTHYADSVKGRFTISRDNAKNTVYLQMNSLKPEDTAVYYCAATFGYGRYGYWGQGTQVTVSS
  polyreactivity (PSR sort gate): low polyreactivity

## QVQLVESGGGLVQAGGSLRLSCAASGFIFSYYAMGWYRQAPGKERELVAVISWSGGSTYYADSVKGRFTISRDNAKNTVYLQMNSLKPEDTAVYYCNAGYTYNRVIWPYYYWGQGTQVTVSS
  polyreactivity (PSR sort gate): high polyreactivity

## QVQLVESGGGLVQAGGSLRLSCAASGIFVVYAMGWYRQAPGKERELVAAISSGVSTTYADSVKGRFTISRDNAKNTVYLQMNSLKPEDTAVYYCNTLWGHQYIVPYRTREFYYWGQGTQVTVSS
  polyreactivity (PSR sort gate): low polyreactivity

## QDQLVEAGGGLVQAGGSLRLSCAASGFTFYPYAMGWYRQAPGKERELVAAISYSGDRTYYADSVKGRFTISRDNAKNTVYLQMNSLKPEDTAVYDCVSAVHPGKYYYWGQGTQVTESS
  polyreactivity (PSR sort gate): high polyreactivity

## QVQLVESGGGLVQAGGSLRLSCAASGFIFKANAMGWYRQAPGKERELVASITFGGDSTYYADSVKGRFTISRDNAKNTVYLQMNSLKPEDTAVYYCNTRRRSYRTYYYWGQGTQVTVLS
  polyreactivity (PSR sort gate): low polyreactivity

## QVQLVESGGGLVQAGGSLRLSCAASGLTFFYYAMGWYRQAPGKERELVASISSSGITNYADSVKGRFTISRDNAKNTVYLQMNSLKPEDTAVYYCASQYYISPLRYYSPTGGYWGQGTQVTVSS
  polyreactivity (PSR sort gate): high polyreactivity

## QVQLVESGAGLVQAGGSLRLSCAPSGSTFMTYAMGWYRQAPGKERELVAAIRWSGGGTYYADSVKGRFTISRDNAKNTVYLQMNSLKPEDTAVYFCAADHFNYTTGRDYWGQGTQVTVSS
  polyreactivity (PSR sort gate): low polyreactivity

## QVQLVESGGGLVQAGGSLRLSCAASGSIFWGNAMGWYRQAPGKEREMVAAITWSGGSTYYADSVKGRFTISRDNAKNTVYLQMNSLKPEDTAVYYCYAVYIGSRRRYEYDYWGQGTQVTVSS
  polyreactivity (PSR sort gate): high polyreactivity

## QVQLVESGGGLVQAGGSLRLSCAASGSIFYHNAMGWYRQAPGKERELVAAITSRGGRTTYADSVKGRFTISRDNAKNTVYLQMNSLKPEDTAVYYCNAVYTGYSYISRVDYWGQGTQVTVSS
  polyreactivity (PSR sort gate): low polyreactivity

## QVQLVDSGGGLVQAGGSLRLSCAASGRTFYRNAMGWYRQAPGKVRELVAGISSGGFTYYADSVKGRFTITRDNAKNTFYLQMNSLKPEDTPVYYCAASAWSGYWFDYWGQGTQVTVSS
  polyreactivity (PSR sort gate): high polyreactivity

## QGQLVESGGGLVQAGGSLRLSCAASGRTFYRYAMGWYRQAPGQERELVASITRGTSTNYADSVKGRFTISRDNAKNTVYLQMNSLKPEDTAVYYCAAGASGLFWDYDYWGQGTQVTVSS
  polyreactivity (PSR sort gate): high polyreactivity

## QFQLVESGGGLVQAGGSLRLSCAASGSIFKYYTMGRYRQAHGKEMELVAYISSGGSTKYADSVKGRFTISRDNAKNTVYLQMNSLKPEDTAVYYCAKRYYYFYPDYDYWGQGTQVTVSS
  polyreactivity (PSR sort gate): high polyreactivity

## QVQLVESGGGLVQAGGSLRLSCAASGRIFGVNAMGLYRQAPGKERELVAVISSGGSTYYADSVKGRFTISRDNAKNTVYLQMNSLKPEDTAVYYCNAVVGRWFPYNLSDYWGQGTQVTVSS
  polyreactivity (PSR sort gate): low polyreactivity

## QVQLVESGGGLVKAGGSLRLSCAPSGSTFKSYSMGWYRQAPGIECELVAAITSGGRTYYADSVKGRFTISRDNAKNTVYLQMNSLKPEDTAVYYCAALRVQQVKSYYYWGQGTQVTVSS
  polyreactivity (PSR sort gate): high polyreactivity

## QVQLVESGGGLVQAGGSLRLSCAASGRTFTINAMGWYRQAPGKERELVATIRVSGGSTYYADSVKGRFTISRDNAKNTVYLQMNSLKPEDTAVYYCAKGGTYFYAPAYDYWGQGTQVTVSS
  polyreactivity (PSR sort gate): low polyreactivity

## QVQLVESGGGLVQAGGSLRLSCAASGFIFYKYAMGWYRQAPGKERELVAAITWRGGRTNYADSVKGRFTISRDNAKNTVYLQMNSLKPEDTAVYYCAADPWYSSYYYSYEYWGQGTQVTVSS
  polyreactivity (PSR sort gate): high polyreactivity

## QVQLVESGGGLVQAGGSLRLSCAASGITFRYNAMGWYRQAPGKERQLVAGITGSGGRTYYADSVKGRFTISRDNAKNSVYLQMNSLKPEDTAVYYCAAYPPARRTMDYWGQGTQVTVSS
  polyreactivity (PSR sort gate): low polyreactivity

## QVQLVESGGGLVQARGRLRLSCSASGRTFYGYAMGWYRQATGKERELVASISWSTGSTHYADSVKGRFTISRDNAKNTVYLQMNSLKPEDTAVYYCAAPFWRDSYVQIDYDFWGQGTQVTVSS
  polyreactivity (PSR sort gate): low polyreactivity

## QVQLVESGGGLVQAGGSLRLSCAPSGSIFDSNAMGWYRQAPGKERELVAAISSSGARTYYADSVKGRFTISRDNAKNTVYLQMNSLKPEDTAVYYCAARYAGGYYYWGQGTQVTVSS
  polyreactivity (PSR sort gate): high polyreactivity

## QVQLVESGGGLVQAGGSLRLSCAASGFTFRYYTMGWYRQAPGKERELVAAITSSGGNTYYADSVKGRFTISRDNAKYTVYLQMNSLKPEDTAVYYCAADGRYYAVFRYDYWGQGTQVTVSS
  polyreactivity (PSR sort gate): low polyreactivity

## QVQLVESGGGLVQAGGSLRLSCAASGFTLYAYVMGWYRQAPGKERDLVAAISRSGGSTYYADSVKGRFTISRDNAKNTVYLQMNSLKPEDTAVYYCAAQYKRYHRLYGYWGQGTQVTVSS
  polyreactivity (PSR sort gate): high polyreactivity

## QVQLVESGGGLVQAGGSLRLSCAASVRLFRGYAMGWYRQAPGKERELVAGITSGGSTKYADSVKGRFTISRDNAKNTVYLQMNSLKPEDTAVYDCAKGYLAYSYYARPYIRYYWGQGTQVTVSS
  polyreactivity (PSR sort gate): high polyreactivity

## QVQLVESGGGLVQAGGSLRLSCAASGSIFSTYAMGWYRQAPGKERELVATIRRGGSTYYADSVKGRFTISRDNAKNTVYLQMNSLKPEDTAVYYCAATVSSYPYYRYYSWGQGTQVNVSS
  polyreactivity (PSR sort gate): high polyreactivity

## QVQLVESGGGLVQAGRSLPLSCAASGRIIELYGMGWKRPATGKERELVAAMSYGGGSTYYAESVKGRFTISRDNAKNTVYLQMNSLKPEDTAVYYCAARYRTLTKYYWGQGTQVTVSS
  polyreactivity (PSR sort gate): low polyreactivity

— the nanobody polyreactivity screen of Harvey et al. (2022)
